Data on 30 sequences can be found in the nanobody polyreactivity screen of Harvey et al. (2022).

The nature of the series: yeast display, Sf9 membrane polyspecificity reagent, FACS + sequencing; frameworks hold sequencing errors. In short, it runs like this:
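Genes from sorted yeast were amplified by colony PCR, read by MiSeq 2 × 250 sequencing and filtered on CDR length. These cells carried a synthetic nanobody library in Saccharomyces cerevisiae BJ5465 and were sorted by FACS into low and high (top ~1%) gates on anti-HA and streptavidin fluorescence. Polyreactivity is labelled according to the gate of origin.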
Turning to “QVQLVESGGGLVQAGGSLRLSCAASGSTFRYYGMGWYRQAPGKERELVADITSGGTTDYADSVKGRFTISRDNAKNTVYLQMNSLKPEDTAVYYCAAGRWYKRQSTWGFGLDHDYWGQGTQVTVSS”, the “polyreactivity (PSR sort gate)” value is “low polyreactivity”.
“QVQLVESGGGLVQAGGSLRLSCAASGSIFDVYDMGWYRQAPGKERELVASISDSGSSTYYADSVKGRFTISRDNAKNTVYLQMNSLKPEDTAVYYCAAGYYVDRSIYNYWGQGTQVTVSS”: the “polyreactivity (PSR sort gate)” value is listed as “low polyreactivity”.
In the case of “KVQLVESGGGLVQAGGSLRLSCAPSGRIFQPNVMGWYRQPPGKVRELAAAIRSVSSTYYADSVKGRFTISRDNAKNSVYLQMNSLKPEDTAVYYCAARLFLRGYTRGNYLGQGTQVTVSS”, the “polyreactivity (PSR sort gate)” value is reported as “high polyreactivity”.
In the case of “QVQLVESGGGLVQAGGSLRLSCAASGSIFYVYAMGWYRQAPGKVRELVATISSSAGSTYYADSVKGRFTISRDNAKNTVYLQMNSLKPEDTAVYYCIADSFLSWVYRYVYYGSAYWGQGSQVTVSS” it was “low polyreactivity”; in that of “QVQLVESGGGLVQAGGSLRLSCAASGFIFSYYAMGWYRQAPGKERELVAAISSGGSTYYADSVKGRFTISRDNAKNTVYLQMNSLKPEDTAVYYCAAAIWYIKLYFVRRTEHGYWGQGTQVTVSS”, “low polyreactivity”; in that of “QVQLVESGGGLVQAGGSLPLSCAASGSTLSGYAMGWYRQAPGKEREMVAAITKSGGRTYYADSVKGRFTISRDNAKNTVYLQMNSLKPEDTAVYYCAKAYPGTYREYDYWGQGTQVTVSS”, “high polyreactivity”.
In the case of “QVHLQESGGGLVQAGGSLRMSCAASGTIFTEANMGWYRQAPGKERELVATIGLGSTTNYADSVKGRFTISRDNAKNTVYLQMNSLKPEETAVYYCAVVTVDPVGFVYWGQGSQVTVSS” it was “low polyreactivity”.
In the case of “QVQLVESGGGVVQAGGSLGLSCAASGRLFGYYAMGWYRQAPGKERELGAAINYSGGSTYYADSVKGRFTISRDNAKNTVYLQMNSLKPEDTAVYYCNAVRYTLLYYWGQGTQVTVSS” it was “high polyreactivity”.
As to “QVQLVESGGGLVQAGGSLRLSCAASGFTIVYYSMGWYRQAPGKERELVATISSGGGTNYADSVKGRFTISRDNAKNTVYLQMNSLTPEDTAVYYCAAEYYTGYFKYDYWGQGTQVTVSS”, the “polyreactivity (PSR sort gate)” value is “high polyreactivity”.
Under “QVQLVESGGGLVQAGGSLRLSCAASGITFSYYAMGWYRQAPGKERELVAAISRTGTSTYYADSVKGRFTISRDNAKNTVYLQMKSLKPEDTAVYDCAAVPRHPYHDKYDYWGQGTQVTVSS” stands “high polyreactivity”.
In the case of “QVQLVESGGGLVQAGGSLRLSCAASGRIFKGYAMGWYRQAPGKERELVAAITWRGGTTYYADSVKGRFTISRDNAKNTVYLQMNSLKPEDTAVYYCATTRYPRSYDYYYWGQGTQVTVSS” it was “high polyreactivity”; in that of “QVQLVESGGGLVQARGSLRLSCAASGSIFSYYARGLYRQAPGKESELVAAITRGGTTYYADSVKGRFTISRDNAKNSVYLQMNSLKPEDTAVYYCAVYYYSGTAGYRYGYWGQGSQVTVSS”, “high polyreactivity”.
In the case of “QVQLVESGGGLVQAGGSLRLSCAASGRTFLYYAMGWYRQAPGKERELVAAISSGADSTYYADSVKGRFTISRDNAKNTVYLQMNSLKPEDTAVYYCAAGGSHDGVWDDYWGQGTQVTVSS” it was “high polyreactivity”; in that of “QVQLVESRGGLVQAGGSLRLSCASSGSIFFSNAMGWYRQAPGKERELVAAISKSGGSTYYADSVKGRFTISRDNAKNTVYLQMNSLKPEDTAVYYCAAERTFLYWAYDYWGQGTQVTVSS”, “high polyreactivity”.
Consider “QVQLEESGGGLVQAGGSLRLSCAASGYILNDYTKGWYRQAPGKERELVAAITSSGDRTYYADSVKGRFTISRDNAKNTVYLQMNSLNPEDTAVYYCAADIYLGDYYYWGLGTQVTVSS”, for which the “polyreactivity (PSR sort gate)” value is “low polyreactivity”.
In the case of “QVQLVESGGGLVQAGGSLRLSCAASGSTFRYYAMGWYRQAPGKERELVAVISTSGNTYYADSVKGRFTISRDNAKNTVYLQMNSLKPEDTAVYYCAARGVGGQISQEYDYWGQGTQVTVSS” it was “low polyreactivity”; in that of “QFQLVESGGGLVQAGGSLRLSCAAYGSTLYPYEMGWYRQAPGKERELVAAIDSGGSKNYADSVKGRFTISRDNAKNTVYLQMNSLKPEDTAVYYCAADGGVAWGYGYWGQGTQVTVSS”, “low polyreactivity”; in that of “QVQLVESGGGLVQAGGSLRLSCAASGFIFRYYAMGWYRQAPGKERELVAAISSGGRTSYADSVKGRFTISRDNAKNTVYLQMNSLKPEDTAVYYCAADRWRGLFYYGKDYWGQGTQVTVSS”, “high polyreactivity”.
For “QVQLVESGGGLVQAGGSLRLSCAASGSIFSSNAMGWYRQAPGKERELVAAITSGGSTTYADSVKGRFTISRDNAKNTVYLQMNSLKPEDTAVYYCAADPVYRYYHGWTYLDYDYWGQGTQVTVSS”, the “polyreactivity (PSR sort gate)” value is on record as “low polyreactivity”.
Under “QVQLVESGGGLVQAGGSLRLSCAASGSTFDIYVMGWYRQAPGKERELVAAISRVGNTSYADSVKGRFTISRDNAKNTVYLQMNRLNPEDTAVYYCAADRADFFVIRTIDPYDYWGQGTQVTVSS” stands “low polyreactivity”.
In the case of “QVQLVESGGGLVQAGGSLRLSCAASGITFGVYAMGWYRQAPGKERELVAAISWSVGSTYYADSVKGRFTISRDNAKNTVYLQMNSLKPEDTAVYYCAAYYGVGFDYWGQGTQVTVSS”, the “polyreactivity (PSR sort gate)” value is “high polyreactivity”.
In the case of “QVQLVESGGGLVQAGGSLRLSCAASGRIFGPYAMGWYRHAPGKERELVAAISSSGSTTYYADSVKGRFTISRDNAKNTVYLQMNSLKPEDTAVYYCAKPSSRDSPYDYWGQGTQVTVSS” it was “low polyreactivity”; in that of “QVQLVESGGGLVQAGGSLRLSCAASGSTFRRYAMGWYRQAPGKERELVAAITGSGGRTYYADSVKGRFTISRDNAKNTVYLQMNSLIPVDTAVYYCAKEGTFTKGVRLFDYWGQGTQVTVSS”, “high polyreactivity”; in that of “QVQHVESGGGLVQAGGSLRLSCAASGRTFYRNAMGWYRPAPGKERELVAAISWSGGRTFYADSVKGRFTISRDNAKNTVYLQMNSLKPEDTAVYYCAKTYTTPGYYRYDYWGKGTQVTVSS”, “high polyreactivity”.
Under “QVQLVESGGGLVQAGGSLRLSCAASGIISPFYAMGWYRPAPGNERELVADISTGGTTTYADSVKGRFTISRDNAKNTVYLKMNSLKPEDTAVYYCNAEVSLTYYWIVWASYDYWGQGTQVTVSS” stands “low polyreactivity”; under “QVQLVESGGGLVQAGGSIRLSCAASGSTISHNAMGWYRQAPGKERELVAAITRGDSTNYADSVKGRFTNTRDNAKNTVYLEMNSLKPEDTAVYYCNANKWYRYDYWGQGTQVTVSS”, “low polyreactivity”; under “QVQLVESGGGLVQAGGSLRLSCAASGSIFYVYAMGWYRQAPGKERELVADITTRDGDTYYADSVKRRFTISRDNAKNTVYLQMNSLKPEDTAVYYCAADLNAYPLRAYDYWGQGTQVTVSS”, “low polyreactivity”.
Under “QVQLVESGGGLVQAGGSLRLSCAASGSTLVYNAMGWYRQAPGKERELVAAISRSGGITYYADSVKGRFTISRDNAKNTVYLQMNSLKPEDTAVYYCNAVVRTRYRPGYDYDYWGQGTQVTVSS” stands “high polyreactivity”.
On to “QVQLVESGGGLVQAGGSLRLSCAASGFTSRYVMGWYRQAPGKERELVASISRSGGSTYYADSVKGRFTISRDNAKNTVYLQMNSLKPEDTAVYYCAALGLSYSSRYYHWQNEFDYWGQGSQVTVSS”, for which the “polyreactivity (PSR sort gate)” value was “high polyreactivity”.
Under “QVQLVESGGGLVQAGGSLRLSCAASGSIFGWNAMGWYRQAPGKERELVASITWSGGRTYYADSVKGRFTISRDNAKNTVYLQMNSLKPEDTAVYYCAARGYTVWDDYWGQGTQVTVSS” stands “high polyreactivity”.
